# Measured values published in US20220348635A1, “COMPOSITIONS AND METHODS FOR NEUROLOGICAL DISEASES” (Coda Biotherapeutics, Inc., priority 2019, published 2022).
# What was measured:
# Assay type in all cases: cell-based
# [1] = YFP quench plate reader assay, response to acetylcholine; settings: LX293T YFP reporter cells
# Excerpt: (§1) FIGS. 1A-FIG. 1G show the heat maps of the percent quench of YFP fluorescence in the mutants of the engineered chimeric receptor SEQ ID NO:33 that comprise the indicated double amino acid substitutions following stimulation by various doses of either acetylcholine or the indicated non-native ligand. Ligand doses are written across the top of each chart. Numbers in the boxes indicate the absolute amount of quench observed. Dark blue=80% maximal quench of YFP reporter. Light blue=quench of 30-80%. White=10-30%. Orange=0-10% quench. Negative values represent non-responders that have a negative quench due to a stimulation artifact. SEQ ID NO:29 is a non-responding chimera used as a negative control. Abbreviations for non-native ligand names: abt: ABT-126; ach: acetylcholine; apn: APN-1125; azd: AZD-0328; brd: TC-5619; fac: RG3487; tc6: TC-6987.
# (§2) Tables 2-8 below lists percent quench of YFP fluorescence following stimulation of the indicated engineered receptor by various doses of either acetylcholine or the non-native ligand.
# (§3) To screen these mutant LGICs for those having novel response profiles to ligands, an anion reporter assay was developed to assess the function of channels in a high throughput format. In this assay, cells expressing a YFP reporter whose fluorescence is quenched in the presence of anion are transfected with DNA encoding the channel of interest. Upon exposure to ligand, channels that are activated will flux anion, resulting in a dose-dependent quench of the YFP that can be detected on a plate reader.
# (§4) Lenti-X 293T cells (LX293T, Clontech) were maintained in DMEM containing 10% FBS and 1% penicillin/streptomycin (Invitrogen). […] Two days before assay, cells were split at a density of 20,000 cells/well in a 96-well tissue culture plate coated with poly-d lysine (Thermo Scientific). The next day, the cells were transiently transfected with 0.1 μg of DNA per well using standard Fugene protocol (Promega). On the day of assay, cells were washed 2 times in 1× extracellular solution (1×ECS: 140 mM NaCl, 5 mM KCl, 1 mM MgCl2, 2 mM CaCl2, 10 mM HEPES, 10 mM glucose, pH 7.2, mOsms 300). After the last wash, 100 μL of 1×ECS was added to the wells and the plate was incubated at 37° C. for 30 min. While incubating the plate, the drugs were diluted to a 2× concentration in 1×ECS-NaI (same components as 1×ECS except the 140 mM NaCl was replaced by 140 mM NaI). The plates were then read on a Flexstation3 (Molecular Devices). Each well, 8 wells at a time, of the plate is read for 2 min using a Flexstation3 (Molecular Devices) as follows: 1) a baseline YFP fluorescence is read for 17 sec, 2) 100 μL of ligand is added, and 3) the changes in YFP fluorescence are then measured every 1.3 sec for the remaining time.
# (§5) FIG. 1 provides heat maps of the percent quench of YFP fluorescence following stimulation by various doses of either acetylcholine or the non-native ligand as indicated in the Figure. A positive fluorescence signal, as indicated by blue shaded cells, indicate that the engineered receptor is activated by the non-native ligand at that concentration. […] Table 12 lists the EC50 values for the indicated double mutants to acetylcholine (Ach) and TC-5619 as determined from the YFP fluorescence plate reader experiment.
# [2] = YFP quench plate reader assay, response to TC-6987; settings: LX293T YFP reporter cells
# Excerpt: as §1, §2, §3, §4, §5
# [3] = High throughput electrophysiology in HEK293T cells, AZD-0328; settings: HEK293T cells, held at −60 mV
# Method: To confirm the EC50s determined by plate reader as well as develop a better understanding of maximum current flow, the engineered receptors were subjected to high throughput electrophysiology system, as described below. For HEK293T studies, cDNAs encoding ion channels were cloned into pcDNA3.1 using standard recombination techniques. HEK293T cells from Clontech (Lenti-X™ 293T Cell Line) were cultured in DMEM supplemented with 10% FBS and 1% Pen/Strep to 40-50% confluence using standard cell culture protocols, transfected with ion channel plasmids at a concentration of 18 μg per 15 cm dish using Fugene 6, and grown for an additional 24 hours. Cells were then assayed on a electrophysiological system (IonFluxHT and/or Mercury, Fluxion Biosciences) in which dose-response relationships may be assessed through a microfluidics-based platform for establishing whole cell configurations. Ensemble plates were primed with extracellular buffer (140 mM NaCl, 5 mM KCl, 2 mM CaCl2), 1 mM MgCl2, 10 mM HEPES, and 10 mM glucose, pH 7.2 with NaOH, mOsm 310), intracellular buffer (145 mM CsCl, 2 mM CaCl2, 2 mM MgCl2, 10 mM HEPES, and 10 mM EGTA, pH 7.2 with CsOH, mOsm 305), as adapted from Lynagh and Lynch, and test compounds (stocks prepared fresh) diluted in extracellular buffer. Cells were then released from the plate with Accutase, centrifuged, resuspended in extracellular buffer, and loaded into Ensemble plates. Cells were then subjected to a standard protocol for priming, trapping, breaking, and establishing whole cell configuration, with cells held at −60 mV throughout the recording. After recording baseline, progressive doses of test compounds were applied using the IonFlux software to assess dose response relationships. Data were then analyzed off-line using custom Python scripts to convert data to .csv format, re-plot traces, and apply QC measurements to reject unstable recordings (i.e. thresholding based on access resistance and/or standard deviation in baseline, as well as artifact rejection). Peak currents were then calculated and population data were fit using a 4-parameter logistic equation as described by the Hill Equation. Currents were measured on an automated patch clamp system (Fluxion Biosciences) following 1 second addition of drug and the EC50 values calculated are tabulated below in Table 13.
# [4] = YFP quench plate reader assay, response to ABT-126; settings: LX293T YFP reporter cells
# Excerpt: as §1, §2, §3, §4, §5
# [5] = YFP quench plate reader assay, response to AZD-0328; settings: LX293T YFP reporter cells
# Excerpt: as §1, §2, §3, §4, §5
# [6] = YFP quench plate reader assay, response to RG3487; settings: LX293T YFP reporter cells
# Excerpt: as §1, §2, §3, §4, §5
# [7] = YFP quench plate reader assay, response to TC-5619; settings: LX293T YFP reporter cells
# Excerpt: as §1, §2, §3, §4, §5
# [8] = YFP quench plate reader assay, response to APN-1125; settings: LX293T YFP reporter cells
# Excerpt: as §1, §2, §3, §4, §5
molecule,measurement,setting,value
"Y115D, S170T in SEQ ID NO: 33: engineered chimeric α7-nAChR/GlyRα1 LGIC receptor: SEQ ID NO: 33 with substitutions Y115D and S170T (protein, synthetic sequence of chimeric LGIC) MRCSPGGVWLALAASLLHVSLQGEFQRKLYKELVKNYNPLERPVANDSQPLTVYFSLSLLQIMDVDEKNQVLTTNIWLQMSWTDHYLQWNVSEYPGVKTVRFPDGQIWKPDILLDNSADERFDATFHTNVLVNSSGHCQYLPPGIFKSSCPMDLKNFPMDVQTCKLKFGTWSYGGWSLDLQMQEADISGYIPNGEWDLVGIPGKRSERFYECCKEPYPDVTFTVTMRRRMGYYLIQMYIPSLLIVILSWISFWINMDAAPARVGLGITTVLTMTTQSSGSRASLPKVSYVKAIDIWMAVCLLFVFSALLEYAAVNFVSRQHKELLRFRRKRRHHKSPMLNLFQEDEAGEGRFNFSAYGMGPACLQAKDGISVKGANNSNTTNPPPAPSKSPEEMRKLFIQRAKKIDKISRIGFPMAFLIFNMFYWIIYKIVRREDVHNQ","percent quench of YFP fluorescence, 10 uM ach",[1]; 10 uM acetylcholine,−0.46%
same,"percent quench of YFP fluorescence, 100 uM ach",[1]; 100 uM acetylcholine,−4.93%
same,"percent quench of YFP fluorescence, 1 mM ach",[1]; 1 mM acetylcholine,−11.18%
same,"percent quench of YFP fluorescence, 3 mM ach",[1]; 3 mM acetylcholine,−3.53%
same,"percent quench of YFP fluorescence, 1 uM tc6",[2]; 1 uM TC-6987,31.9%
same,"percent quench of YFP fluorescence, 10 uM tc6",[2]; 10 uM TC-6987,25.54%
same,"percent quench of YFP fluorescence, 500 uM tc6",[2]; 500 uM TC-6987,21.13%
same,EC50 AZD-0328,[3],no activity
same,"percent quench of YFP fluorescence, 50 nM abt",[4]; 50 nM ABT-126,−11.83%
same,"percent quench of YFP fluorescence, 100 nM abt",[4]; 100 nM ABT-126,−11.5%
same,"percent quench of YFP fluorescence, 300 nM abt",[4]; 300 nM ABT-126,−8.01%
same,"percent quench of YFP fluorescence, 1 uM abt",[4]; 1 uM ABT-126,−9.34%
same,"percent quench of YFP fluorescence, 100 nM azd",[5]; 100 nM AZD-0328,−0.71%
same,"percent quench of YFP fluorescence, 300 nM azd",[5]; 300 nM AZD-0328,−1.73%
same,"percent quench of YFP fluorescence, 30 uM azd",[5]; 30 uM AZD-0328,47.39%
same,"percent quench of YFP fluorescence, 30 nM fac",[6]; 30 nM RG3487,38.08%
same,"percent quench of YFP fluorescence, 100 nM fac",[6]; 100 nM RG3487,−14.37%
same,"percent quench of YFP fluorescence, 300 nM fac",[6]; 300 nM RG3487,19.41%
same,"percent quench of YFP fluorescence, 10 uM fac",[6]; 10 uM RG3487,67.33%
same,"percent quench of YFP fluorescence, 30 uM fac",[6]; 30 uM RG3487,79.67%
same,"percent quench of YFP fluorescence, 1 nM brd",[7]; 1 nM TC-5619,−9.78%
same,"percent quench of YFP fluorescence, 3 nM brd",[7]; 3 nM TC-5619,12.06%
same,"percent quench of YFP fluorescence, 10 nM brd",[7]; 10 nM TC-5619,−9.02%
same,"percent quench of YFP fluorescence, 30 nM brd",[7]; 30 nM TC-5619,16.3%
same,"percent quench of YFP fluorescence, 100 nM brd",[7]; 100 nM TC-5619,−7.44%
same,"percent quench of YFP fluorescence, 300 nM brd",[7]; 300 nM TC-5619,−10.93%
same,"percent quench of YFP fluorescence, 1 uM brd",[7]; 1 uM TC-5619,−4.55%
same,"percent quench of YFP fluorescence, 100 nM apn",[8]; 100 nM APN-1125,−18.17%
same,"percent quench of YFP fluorescence, 1 uM apn",[8]; 1 uM APN-1125,−15.2%
same,"percent quench of YFP fluorescence, 30 uM apn",[8]; 30 uM APN-1125,−14%
"Y115E in SEQ ID NO: 33: SEQ ID NO: 33 chimeric receptor with single substitution Y115E (protein, synthetic sequence of chimeric LGIC) MRCSPGGVWLALAASLLHVSLQGEFQRKLYKELVKNYNPLERPVANDSQPLTVYFSLSLLQIMDVDEKNQVLTTNIWLQMSWTDHYLQWNVSEYPGVKTVRFPDGQIWKPDILLENSADERFDATFHTNVLVNSSGHCQYLPPGIFKSSCPMDLKNFPMDVQTCKLKFGSWSYGGWSLDLQMQEADISGYIPNGEWDLVGIPGKRSERFYECCKEPYPDVTFTVTMRRRMGYYLIQMYIPSLLIVILSWISFWINMDAAPARVGLGITTVLTMTTQSSGSRASLPKVSYVKAIDIWMAVCLLFVFSALLEYAAVNFVSRQHKELLRFRRKRRHHKSPMLNLFQEDEAGEGRFNFSAYGMGPACLQAKDGISVKGANNSNTTNPPPAPSKSPEEMRKLFIQRAKKIDKISRIGFPMAFLIFNMFYWIIYKIVRREDVHNQ",EC50 AZD-0328,[3],no activity
